Test system: MCF10A
Assay: 5+ nucleoli phenotype percent effect (relative to siNT 0% and siKIF11 100%); higher = more cells with five or more nucleoli
Conditions: 20 nM; 72 h
Procedure: (§1)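 After 72 h, cells were fixed and stained with Hoechst and anti-fibrillarin, and nucleoli per nucleus were counted with CellProfiler. Values are plate-adjusted percent effect for the one-nucleolus and 5+ nucleoli phenotypes, normalised to siNT (0%) and to the positive controls siNOL11 or siKIF11 (100%), as the mean of biological triplicates. Percent viability is the nuclei count relative to siNT.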

Sequence	5+ nucleoli phenotype percent effect [%]
UUAAGACUUGCAGUGAUGUUU [hsa-miR-499a-5p]	-1.56
AGGCUGUGAUGCUCUCCUGAGCCC [hsa-miR-7974]	-12
UGUUUUGAUAACAGUAAUGU [hsa-miR-2052]	5.44
AGUUUGGGAUGGAGAGAGGAGA [hsa-miR-6740-5p]	24.1
GGGGGGGGGGGGGGGGGGCCG [hsa-miR-1234-5p]	65.1
UAGGCACACUUAAAGUUAUAGC [hsa-miR-5582-5p]	-17.3
UAGAUCUUUGACUCUGGCAGUCUCCAGG [hsa-miR-7161-3p]	28.4
UAGUGGUCCUAAACAUUUCACA [hsa-miR-203b-5p]	-42.9
UUUCCGGCUCGCGUGGGUGUGU [hsa-miR-1180]	-27.5
CGGGGAGAGAACGCAGUGACGU [hsa-miR-3175]	-3.98
CUGGGAUCUCCGGGGUCUUGGUU [hsa-miR-769-3p]	-14.5
CUCUAGAGGGAAGCGCUUUCUG [hsa-miR-523-5p]	-3.36
UGUGAUAUCAUGGUUCCUGGGA [hsa-miR-3689a-5p]	-5.22
GUGCGGAACGCUGGCCGGGGCG [hsa-miR-6850-5p]	-19.5
CCUGAGAAAAGGGCCAA [hsa-miR-4251]	-4.33
CUUUCAGUCAGAUGUUUGCUGC [hsa-miR-30d-3p]	59.2
CCCAUCACCUUUCCGUCUCCCCU [hsa-miR-6884-3p]	50.9
GUGUCUGGGCGGACAGCUGC [hsa-miR-1231]	-15.6
AAAACUGUAAUUACUUUUGUAC [hsa-miR-548g-3p]	49.3
AAAAUGAAAUGAGCCCAGCCCA [hsa-miR-3646]	21.9
UCGGGGAGUCUGGGGUCCGGAAU [hsa-miR-6889-5p]	3.52
GUAAGGGACCGGAGAGUAGGA [hsa-miR-6892-5p]	-29
CAUCCCUUGCAUGGUGGAGGG [hsa-miR-188-5p]	45.6
CAGUAACAAAGAUUCAUCCUUGU [hsa-miR-802]	-6.89
AGGUGGGUAUGGAGGAGCCCU [hsa-miR-6769a-5p]	-16.7
UGUGAUAUCAUGGUUCCUGGGA [hsa-miR-3689b-5p]	-25.9
AAUGUUGGAAUCCUCGCUAGAG [hsa-miR-4781-3p]	12.4
CAAAGUGCUGUUCGUGCAGGUAG [hsa-miR-93-5p]	59.5
UGGGGGGACAGAUGGAGAGGACA [hsa-miR-6887-5p]	-8.17
CUAUACGACCUGCUGCCUUUCU [hsa-let-7d-3p]	18.1

Test system: MCF10A
Assay: one-nucleolus phenotype percent effect (relative to siNT 0% and siNOL11 100%); higher = more cells with one nucleolus (ribosome biogenesis inhibition)
Conditions: 20 nM; 72 h
Procedure: as §1

Sequence	one-nucleolus phenotype percent effect [%]
AGCAGAAGCAGGGAGGUUCUCCCA [hsa-miR-298]	17.9
GUGGCUCUGUAGUAAGAUGGA [hsa-miR-8057]	6.14
GGGGCGCGGCCGGAUCG [hsa-miR-3178]	-32.2
GUUCAAAUCCAGAUCUAUAAC [hsa-miR-607]	-23.2
GGAGUGGGCUGGUGGUU [hsa-miR-4481]	5.61
UGGGGUGCCCACUCCGCAAGUU [hsa-miR-4664-5p]	23.6
CUCUAGAGGGAAGCACUUUCUG [hsa-miR-526a]	0.562
CACUCAGCCUUGAGGGCACUUUC [hsa-miR-512-5p]	16.2
AAAACUAGGACUGUGUGGUGUA [hsa-miR-7844-5p]	15.8
AGACCCUGCAGCCUUCCCACC [hsa-miR-4725-5p]	17.4
CAGUGGCCAGAGCCCUGCAGUG [hsa-miR-3677-5p]	16.6
GCGGAGAGAGAAUGGGGAGC [hsa-miR-5739]	-16.4
AAAAGUUAUUGCGGUUUUGGCU [hsa-miR-548at-5p]	-14.7
UAUCUGCUGGGCUUUCUGGUGUU [hsa-miR-4686]	43.6
UCCUGCCUUCCUCUGCACCAG [hsa-miR-6747-3p]	16
AGACUGACCUUCAACCCCACAG [hsa-miR-6855-3p]	-4.32
GAAAGUAAUUGCUGUUUUUGCC [hsa-miR-548aq-5p]	-13.4
CCAGUGUGGCUCAGCGAG [hsa-miR-4302]	18.9
UGUCAGUGACUCCUGCCCCUUGGU [hsa-miR-4697-3p]	-7.45
AGUGCCUGCUAUGUGCCAGGCA [hsa-miR-1271-3p]	-6.99

Sequence	one-nucleolus phenotype percent effect [%]
UAAUGCAUUAAAUUAUUGAAGG [hsa-miR-5700]	-23.8
CCAGGAGGCGGAGGAGGUGGAG [hsa-miR-4459]	9.39
CAAAAGCAAUCGCGGUUUUUGC [hsa-miR-548e-5p]	-2.62
AGCUCUGCUGCUCACUGGCAGU [hsa-miR-3194-3p]	1.77
UCUGCACUGUGAGUUGGCUGGCU [hsa-miR-4793-3p]	10.7
CAGGAAGGAUUUAGGGACAGGC [hsa-miR-4476]	14
GGCUGGUCAGAUGGGAGUG [hsa-miR-6131]	-3.05
AUCAUAGAGGAAAAUCCAUGUU [hsa-miR-376b-3p]	-20.4
AGCAUACACCUGUAGUCCUAGA [hsa-miR-5689]	0.904
UUAAGACUUGCAGUGAUGUUU [hsa-miR-499a-5p]	5.05
AGGCUGUGAUGCUCUCCUGAGCCC [hsa-miR-7974]	30.5
UGUUUUGAUAACAGUAAUGU [hsa-miR-2052]	0.685
AGUUUGGGAUGGAGAGAGGAGA [hsa-miR-6740-5p]	-20.1
GGGGGGGGGGGGGGGGGGCCG [hsa-miR-1234-5p]	-31.5
UAGGCACACUUAAAGUUAUAGC [hsa-miR-5582-5p]	37.6
UAGAUCUUUGACUCUGGCAGUCUCCAGG [hsa-miR-7161-3p]	-23.9
UAGUGGUCCUAAACAUUUCACA [hsa-miR-203b-5p]	58.6
UUUCCGGCUCGCGUGGGUGUGU [hsa-miR-1180]	12.6
CGGGGAGAGAACGCAGUGACGU [hsa-miR-3175]	5.01
CUGGGAUCUCCGGGGUCUUGGUU [hsa-miR-769-3p]	18

Sequence	one-nucleolus phenotype percent effect [%]
CUCUAGAGGGAAGCGCUUUCUG [hsa-miR-523-5p]	5.46
UGUGAUAUCAUGGUUCCUGGGA [hsa-miR-3689a-5p]	6.87
GUGCGGAACGCUGGCCGGGGCG [hsa-miR-6850-5p]	5.11
CCUGAGAAAAGGGCCAA [hsa-miR-4251]	15.3
CUUUCAGUCAGAUGUUUGCUGC [hsa-miR-30d-3p]	-17.5
CCCAUCACCUUUCCGUCUCCCCU [hsa-miR-6884-3p]	-25.5
GUGUCUGGGCGGACAGCUGC [hsa-miR-1231]	62.4
AAAACUGUAAUUACUUUUGUAC [hsa-miR-548g-3p]	-25.2
AAAAUGAAAUGAGCCCAGCCCA [hsa-miR-3646]	-19.1
UCGGGGAGUCUGGGGUCCGGAAU [hsa-miR-6889-5p]	6.17
GUAAGGGACCGGAGAGUAGGA [hsa-miR-6892-5p]	20.5
CAUCCCUUGCAUGGUGGAGGG [hsa-miR-188-5p]	-13.1
CAGUAACAAAGAUUCAUCCUUGU [hsa-miR-802]	-6.9
AGGUGGGUAUGGAGGAGCCCU [hsa-miR-6769a-5p]	39.6
UGUGAUAUCAUGGUUCCUGGGA [hsa-miR-3689b-5p]	19
AAUGUUGGAAUCCUCGCUAGAG [hsa-miR-4781-3p]	-0.0524
CAAAGUGCUGUUCGUGCAGGUAG [hsa-miR-93-5p]	-18.1
UGGGGGGACAGAUGGAGAGGACA [hsa-miR-6887-5p]	22.8
CUAUACGACCUGCUGCCUUUCU [hsa-let-7d-3p]	-15.3

Reference: the supplement of paper PMC10899765
